Data: paper PMC12319226 (Frontiers in Bioinformatics, 2025)
Where a chain is given by its changes, count along the chain named.

B1: mAb 4B3 (human) (antibody, V domains shown)
VH: QVQLVQSGGGLVKPGGSLRLSCAASGFPFSSYYMSWIRQAPGKGLEWVSDINNSGNVKEYADFVKGRLTISRDNVKNSMYLHMNSLRVEDTAVYYCARNRGRFDVWGQGTLVTVSA
VL: EIVMTQSPGTLSLSPGETATLSCRASQMISSPFLAWYQQRRGQAPRLLIYGASTRATDTPDRFRGSGSGTDFILTISRLEPEDFAVYYCQYYDDSPFTFGQGTKLEIK
notes: also called 4B3-2; source: Expi293, purified (MabSelect SuRe, SEC); copies: 2 + 2
B2: mAb 1E6 (human) (antibody, V domains shown)
VH: EVQLVQSGAEVKKPGSSVKVSCKASGGTVIDYPITWVRQAPGQGLEWVGGFVPLFRTSNYGQKFQGRVTITADKSTSTASMELNSLTSEDTAIYYCARGDTAMGPFDYWGQGTLVTVSS
VL: SYVLTQPPSLSVAPGKTATLTCGGNNIAGKTVHWYQQRPGQAPVLVISYDSDRPSGIPERFSGSNSANTATLTISRVEAGDEADYYCQVWDRNSDHWVFGGGTKLTVL
notes: source: Expi293, purified (MabSelect SuRe, SEC); copies: 2 + 2

Columns and labels:
Experiment in all cases: BLI
Conditions in all cases: both partners purified
fHbp mutant 0022 = biological target: T1, fHbp mutant 0022 (Neisseria meningitidis, fHbp v3.28 …, point mutant)
T1 chain: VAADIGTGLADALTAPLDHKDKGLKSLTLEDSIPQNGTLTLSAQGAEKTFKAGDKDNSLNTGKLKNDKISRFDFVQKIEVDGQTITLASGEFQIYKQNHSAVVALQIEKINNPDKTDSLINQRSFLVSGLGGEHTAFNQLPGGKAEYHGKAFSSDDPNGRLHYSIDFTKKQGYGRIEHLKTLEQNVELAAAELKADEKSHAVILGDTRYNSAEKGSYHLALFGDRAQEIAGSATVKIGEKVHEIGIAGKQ

fHbp mutant 0024 = biological target: T2, fHbp mutant 0024 (Neisseria meningitidis, fHbp v3.28 …, point mutant)
T2 chain: T1 chain with N210G, A212E, S216T, E239N, K240G, V241I, E243H

fHbp mutant 0014 = biological target: T3, fHbp mutant 0014 (Neisseria meningitidis, fHbp v1.1 mutant, point mutant)
T3 chain: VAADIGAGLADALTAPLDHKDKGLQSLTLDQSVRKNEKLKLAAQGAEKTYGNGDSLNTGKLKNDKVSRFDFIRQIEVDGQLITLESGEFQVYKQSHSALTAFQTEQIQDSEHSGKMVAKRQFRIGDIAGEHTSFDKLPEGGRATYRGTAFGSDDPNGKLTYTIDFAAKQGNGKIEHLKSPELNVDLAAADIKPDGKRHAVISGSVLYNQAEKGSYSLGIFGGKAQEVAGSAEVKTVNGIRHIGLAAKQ

fHbp mutant 0018 = biological target: T4, fHbp mutant 0018 (Neisseria meningitidis, fHbp v1.1 mutant, point mutant)
T4 chain: T3 chain with K38T, K40T, A42S, I72V, Q74K, Q106K

fHbp mutant 0015 = biological target: T5, fHbp mutant 0015 (Neisseria meningitidis, fHbp v1.1 mutant, point mutant)
T5 chain: T3 chain with I72V, Q74K, Q106K, M116L, A118N

fHbp mutant 0012 = biological target: T6, fHbp mutant 0012 (Neisseria meningitidis, fHbp v1.1 mutant, point mutant)
T6 chain: T3 chain with I72V, Q74K, P155A, N156G

[1] = biological target: T7, factor H binding protein variant 1.1 (Neisseria meningitidis serogroup B …, UniProt Q9JXV4)
T7 construct: also called fHbp v1.1; v1.1 Control (0001)

fHbp mutant 0021 = biological target: T8, fHbp mutant 0021 (Neisseria meningitidis, fHbp v3.28 …, point mutant)
T8 chain: T1 chain with Q122K, S124Q, L126R, N210G, A212E, S216T

fHbp m000019 = biological target: T9, fHbp m000019 (Neisseria meningitidis, fHbp v1.1 …, point mutant)
T9 chain: T3 chain with K38T, K40T, A42S, I72V, Q74K, Q106K, M116L, A118N, P155A, N156G

Row | Binder | Kd (fHbp mutant 0022) | koff (fHbp mutant 0022) | kon (fHbp mutant 0022) | Kd (fHbp mutant 0024) | koff (fHbp mutant 0024) | kon (fHbp mutant 0024) | Kd (fHbp mutant 0014) | koff (fHbp mutant 0014) | kon (fHbp mutant 0014) | Kd (fHbp mutant 0018) | koff (fHbp mutant 0018) | kon (fHbp mutant 0018) | Kd (fHbp mutant 0015) | koff (fHbp mutant 0015) | kon (fHbp mutant 0015) | Kd (fHbp mutant 0012) | koff (fHbp mutant 0012) | kon (fHbp mutant 0012) | Kd [1] | koff [1] | other results
1 | B1 | 1.77 nM | 0.000836 s⁻¹ | 473200 ± 1420 M⁻¹ s⁻¹ | 1.48 nM | 0.000969 s⁻¹ | 655000 ± 3130 M⁻¹ s⁻¹ | 1.57 nM | 0.00116 s⁻¹ | 736500 ± 3130 M⁻¹ s⁻¹ | 2.36 nM | 0.00101 s⁻¹ | 426800 ± 2190 M⁻¹ s⁻¹ | 3.57 nM | 0.00129 s⁻¹ | 360000 ± 5970 M⁻¹ s⁻¹ | 1.39 nM | 0.00126 s⁻¹ | 906000 ± 2710 M⁻¹ s⁻¹ | 1.33 nM | 0.00103 s⁻¹ | kon [1]: 767900 ± 4960 M⁻¹ s⁻¹; Kd (fHbp mutant 0021): 1.82 nM; koff (fHbp mutant 0021): 0.00084 s⁻¹; kon (fHbp mutant 0021): 460100 ± 2250 M⁻¹ s⁻¹; Kd (fHbp m000019): 5.53 nM; koff (fHbp m000019): 0.00124 s⁻¹; kon (fHbp m000019): 224400 ± 1040 M⁻¹ s⁻¹
2 | B2 | 0.601 nM | 0.0003 s⁻¹ | 498300 ± 1660 M⁻¹ s⁻¹ | 0.369 nM | 0.000271 s⁻¹ | 734700 ± 2210 M⁻¹ s⁻¹ | 2.11 nM | 0.00204 s⁻¹ | 964100 ± 5740 M⁻¹ s⁻¹ | 1.04 nM | 0.000558 s⁻¹ | 538300 ± 3080 M⁻¹ s⁻¹ | 1.42 nM | 0.000862 s⁻¹ | 609000 ± 6530 M⁻¹ s⁻¹ | 3.52 nM | 0.00661 s⁻¹ | 1.88e+06 ± 58600 M⁻¹ s⁻¹ | 3.4 nM | 0.00447 s⁻¹ | kon [1]: 1.32e+06 ± 14800 M⁻¹ s⁻¹; Kd (fHbp mutant 0021): 0.654 nM; koff (fHbp mutant 0021): 0.000333 s⁻¹; kon (fHbp mutant 0021): 508900 ± 2640 M⁻¹ s⁻¹; Kd (fHbp m000019): 2.19 nM; koff (fHbp m000019): 0.00153 s⁻¹; kon (fHbp m000019): 698800 ± 3080 M⁻¹ s⁻¹
